Source: US20220325265A1, “GLUCOCEREBROSIDASE MUTANTS” (Hoffmann-la Roche Inc., priority 2019, published 2022)
Several values for one entry are separate records, joined by “and”; a condition that tells them apart may be missing. Equal values may be shown once.

B1: R495HS2: hGCase based on the Cerezyme sequence (R495H) but produced in S2 cells, His8-tagged; Seq. Id. No. 1 (protein, listed as Homo sapiens)
chain: ARPCIPKSFGYSSVVCVCNATYCDSFDPPTFPALGTFSRYESTRSGRRMELSMGPIQANHTGTGLLLTLQPEQKFQKVKGFGGAMTDAAALNILALSPPAQNLLLKSYFSEEGIGYNIIRVPMASCDFSIRTYTYADTPDDFQLHNFSLPEEDTKLKIPLIHRALQLAQRPVSLLASPWTSPTWLKTNGAVNGKGSLKGQPGDIYHQTWARYFVKFLDAYAEHKLQFWAVTAENEPSAGLLSGYPFQCLGFTPEHQRDFIARDLGPTLANSTHHNVRLLMLDDQRLLLPHWAKVVLTDPEAAKYVHGIAVHWYLDFLAPAKATLGETHRLFPNTMLFASEACVGSKFWEQSVRLGSWDRGMQYSHSIITNLLYHVVGWTDWNLALNPEGGPNWVRNFVDSPIIVDITKDTFYKQPMFYHLGHFSKFIPEGSQRVGLVASQKNDLDAVALMHPDGSAVVVVLNRSSKDVPLTIKDPAVGFLETISPGYSIHTYLWHRQ
modifications: His8 tag
B2: K321N: Amicus single mutant hGCase R495H/K321N produced in S2 cells; Seq. Id. No. 2 (protein, listed as Homo sapiens)
chain: ARPCIPKSFGYSSVVCVCNATYCDSFDPPTFPALGTFSRYESTRSGRRMELSMGPIQANHTGTGLLLTLQPEQKFQKVKGFGGAMTDAAALNILALSPPAQNLLLKSYFSEEGIGYNIIRVPMASCDFSIRTYTYADTPDDFQLHNFSLPEEDTKLKIPLIHRALQLAQRPVSLLASPWTSPTWLKTNGAVNGKGSLKGQPGDIYHQTWARYFVKFLDAYAEHKLQFWAVTAENEPSAGLLSGYPFQCLGFTPEHQRDFIARDLGPTLANSTHHNVRLLMLDDQRLLLPHWAKVVLTDPEAAKYVHGIAVHWYLDFLAPANATLGETHRLFPNTMLFASEACVGSKFWEQSVRLGSWDRGMQYSHSIITNLLYHVVGWTDWNLALNPEGGPNWVRNFVDSPIIVDITKDTFYKQPMFYHLGHFSKFIPEGSQRVGLVASQKNDLDAVALMHPDGSAVVVVLNRSSKDVPLTIKDPAVGFLETISPGYSIHTYLWHRQ
notes: Amicus single mutant hGCase R495H/K321N produced in S2 cells; Id; No. 2
B3: K321N/H145L: Amicus double mutant hGCase R495H/K321N/H145L produced in S2 cells; Seq. Id. No. 3 (protein, listed as Homo sapiens)
chain: ARPCIPKSFGYSSVVCVCNATYCDSFDPPTFPALGTFSRYESTRSGRRMELSMGPIQANHTGTGLLLTLQPEQKFQKVKGFGGAMTDAAALNILALSPPAQNLLLKSYFSEEGIGYNIIRVPMASCDFSIRTYTYADTPDDFQLLNFSLPEEDTKLKIPLIHRALQLAQRPVSLLASPWTSPTWLKTNGAVNGKGSLKGQPGDIYHQTWARYFVKFLDAYAEHKLQFWAVTAENEPSAGLLSGYPFQCLGFTPEHQRDFIARDLGPTLANSTHHNVRLLMLDDQRLLLPHWAKVVLTDPEAAKYVHGIAVHWYLDFLAPANATLGETHRLFPNTMLFASEACVGSKFWEQSVRLGSWDRGMQYSHSIITNLLYHVVGWTDWNLALNPEGGPNWVRNFVDSPIIVDITKDTFYKQPMFYHLGHFSKFIPEGSQRVGLVASQKNDLDAVALMHPDGSAVVVVLNRSSKDVPLTIKDPAVGFLETISPGYSIHTYLWHRQ
notes: Amicus double mutant hGCase R495H/K321N/H145L produced in S2 cells; Id; No. 3
B4: M53T/P55T: recombinant human β-glucocerebrosidase variant R495H/M53T/P55T, S2 cells; Seq. Id. No. 7 (protein, listed as Homo sapiens)
chain: ARPCIPKSFGYSSVVCVCNATYCDSFDPPTFPALGTFSRYESTRSGRRMELSTGTIQANHTGTGLLLTLQPEQKFQKVKGFGGAMTDAAALNILALSPPAQNLLLKSYFSEEGIGYNIIRVPMASCDFSIRTYTYADTPDDFQLHNFSLPEEDTKLKIPLIHRALQLAQRPVSLLASPWTSPTWLKTNGAVNGKGSLKGQPGDIYHQTWARYFVKFLDAYAEHKLQFWAVTAENEPSAGLLSGYPFQCLGFTPEHQRDFIARDLGPTLANSTHHNVRLLMLDDQRLLLPHWAKVVLTDPEAAKYVHGIAVHWYLDFLAPAKATLGETHRLFPNTMLFASEACVGSKFWEQSVRLGSWDRGMQYSHSIITNLLYHVVGWTDWNLALNPEGGPNWVRNFVDSPIIVDITKDTFYKQPMFYHLGHFSKFIPEGSQRVGLVASQKNDLDAVALMHPDGSAVVVVLNRSSKDVPLTIKDPAVGFLETISPGYSIHTYLWHRQ
notes: recombinant human β-glucocerebrosidase variant R495H/M53T/P55T, S2 cells; Id; No. 7
B5: I5N: recombinant human β-glucocerebrosidase variant R495H/I5N, S2 cells; Seq. Id. No. 4 (protein, listed as Homo sapiens)
chain: ARPCNPKSFGYSSVVCVCNATYCDSFDPPTFPALGTFSRYESTRSGRRMELSMGPIQANHTGTGLLLTLQPEQKFQKVKGFGGAMTDAAALNILALSPPAQNLLLKSYFSEEGIGYNIIRVPMASCDFSIRTYTYADTPDDFQLHNFSLPEEDTKLKIPLIHRALQLAQRPVSLLASPWTSPTWLKTNGAVNGKGSLKGQPGDIYHQTWARYFVKFLDAYAEHKLQFWAVTAENEPSAGLLSGYPFQCLGFTPEHQRDFIARDLGPTLANSTHHNVRLLMLDDQRLLLPHWAKVVLTDPEAAKYVHGIAVHWYLDFLAPAKATLGETHRLFPNTMLFASEACVGSKFWEQSVRLGSWDRGMQYSHSIITNLLYHVVGWTDWNLALNPEGGPNWVRNFVDSPIIVDITKDTFYKQPMFYHLGHFSKFIPEGSQRVGLVASQKNDLDAVALMHPDGSAVVVVLNRSSKDVPLTIKDPAVGFLETISPGYSIHTYLWHRQ
notes: recombinant human β-glucocerebrosidase variant R495H/I5N, S2 cells; Id; No. 4

Experiments:
[1] = Thermal shift assay via nanoDSF measurement (unfolding temperature); type: physicochemical; conditions: Prometheus NT.Plex, 3° C./min, 0.06-0.5 mg/ml
Method: The thermal shift assay was performed via nanoDSF (differential scanning fluorimetry) measurements using Prometheus NT.Plex nanoDSF (NanoTemper Technologies). The measurement was initialized using the software PR.ThermoControl. Prometheus can precisely characterize samples by measuring the thermal unfolding, chemical denaturation and aggregation within one single run (NanoTemper Technologies, 2019). By gradually heating the sample until reaching 95° C., the protein unfolds. Thereby, the chemical environment of tryptophan residues changes (change in intrinsic tryptophan fluorescence of protein due to more aqueous environment), causing a red-shift in fluorescence (tryptophan fluorescence emission shift). By plotting the fluorescence ratio 350/330 nm against the temperature, the melting temperature Tm can be determined. Calculating the first derivative of raw data gives a peak curve with its maximum indicating the unfolding temperature Tm.
For the sample preparation, a concentration of 0.5 mg/ml was adjusted for the hGCase mutants. For variant I5N and R495HS2, protein concentrations of 0.075 mg/ml (I5N) and 0.06 mg/ml (R495HS2) were applied due to low protein yields. 15 μl total sample volume was uptaken in each capillary of the capillary rack (Prometheus NT.Plex Capillary Chips, NanoTemper) and placed in the device. The excitation power was adjusted to 20-80%, depending on the applied protein concentration. The gradually heating was set to 3° C./min until reaching 95° C. (20° C. was set as starting temperature). The evaluation and calculation of the first derivative was done using the NanoTemper PR.ThermoControl software, the final evaluation and graphing was done using the PR.StabilityAnalysis software.
On the one hand, a successively increasing temperature gradient was applied to measure melting temperatures of protein molecules via nanoDSF (differential scanning fluorimetry) measurement using Prometheus NT.Plex (NanoTemper Technologies, 2019). The sample is gradually heated by increasing the temperature until reaching 95° C. Thereby, the protein unfolds and tryptophan residues experience a change in chemical environment (exposure to a more aqueous environment), which changes the intrinsic tryptophan fluorescence of the protein, causing a red shift in the fluorescent spectrum (350/330 nm=tryptophan fluorescence emission shift) (Schubert, 2015). In FIG. 1, typical melting curves of such an unfolding experiment are shown.
In the upper section of the graphs (FIGS. 1 (A) and (B)), the raw data (progression curves) measured with nanoDSF is plotted, indicating the shift in the fluorescence ratio 350/330 nm during the course of the measurement with increasing temperature. The calculation of the first derivative, giving peak curves (lower section of graphs in (A) and (B)), was done according to default settings of the Software PR.StabilityAnalysis (table 2). Peak maxima (thermal unfolding transition midpoint) indicate the unfolding temperature Tm, where half of the proteins are unfold (Schubert, 2015).

hGCase [2] = test: Inhibition of hGCase using isofagomine (IFG), IC50 determination; type: biochemical, human; conditions: reversible inhibitor isofagomine on the named hGCase variant; 25 nM protein, 10 min pre-incubation at RT, 20 μM res-β-glc
Method: IFG is a competitive, reversible inhibitor of hGCase, interacting with the active pocket of the enzyme (Powe et al., 2006).
To calculate the IC50, a concentration range of 0.002-100 μM IFG was tested. IFG was prepared with a stock concentration of 1 mM in DMSO. The final enzyme concentration was 25 nM. After adding the inhibitor to the enzyme, the solution was pre-incubated for 10 min at RT before adding the substrate (20 μM) for the activity measurement.
The evaluation and IC50 determination were done using GraphPad Prism7. hGCase activity with no inhibitor added was set to 100% relative enzyme activity. In case of evaluating the raw data via GraphPadPrism7, the applied inhibitor concentrations were first transformed to log 10×-values plottet on the x-axis. Further, the raw data measured with the activity assay in RFU was normalized to the highest activity value within one data set (equals 100%). 100% signal was defined as 10-12 μM IFG (=no inhibitor added). Data points were fitted and IC50 values were determined using log(inhibitor) vs. response-variable slope (four parameters) (GraphPadPrism7) following equation 9: […]
(§1) To determine whether the active binding site of an enzyme is compromised or altered, IC50 values were calculated for active site inhibitor and compared. In this work, the natural occurring GCase inhibitor isofagomine (IFG) and conditurol-β-epoxide (CBE) were used. IFG is known as a reversible inhibitor, interacting with the active site of the GCase enzyme, whereas CBE is an irreversible inhibitor of GCase (Powe et al., 2006). The IC50 of an enzyme is defined as the concentration of an inhibitor, where the response, in this case the enzyme activity, is reduced by half (Kalliokoski et al., 2013). Both assays were conducted as described in section 2.5.6. The inhibitor profiles of M53T/P55T using IFG and CBE as well as the IC50 profiles of all residual mutants combined are shown in FIG. 4.
(§2) The raw data was plotted by transforming the applied IFG/CBE concentration to a logarithmic scale (x-axis, FIG. 4) and by normalizing the activity signal with highest signal of each data set to 100% (defined with apparent inhibitor concentration of 10-12 μM, equal to no inhibitor). IC50 values were calculated using GraphPad Prism7 following equation 9.

hGCase [3] = test: Inhibition of hGCase using conditurol-β-epoxide (CBE), IC50 determination; type: biochemical, human; conditions: irreversible inhibitor conditurol-β-epoxide on the named hGCase variant; 25 nM protein, 10 min pre-incubation, 20 μM res-β-glc
Method: CBE is an irreversible inhibitor of glucocerebrosidases which covalently binds to the active site of the enzyme (Liou et al., 2006).
A stock solution of 100 mM CBE in H2Oultrapure was prepared. For IC50 determination, CBE concentrations ranging from 0.04-2500 μM were tested. Again, the final enzyme concentration was 25 nM. After adding the inhibitor, the enzyme was pre-incubated for 10 min before initializing the activity measurement by adding the substrate (20 μM).
IC50 evaluations were done in the same manner as described for IFG (see section above). The IC50 calculations were done using GraphPad Prism7 following equation 9.
as §1, §2

| Molecule | unfolding temperature Tm [1] | IC50 (hGCase [2]) | IC50 (hGCase [3]) |
| --- | --- | --- | --- |
| B1 | 54.6 °C and 54.6 ± 0.0 °C | 17 nM | 55000 ± 3000 nM |
| B2 | 56.2 ± 0.1 °C | 28 ± 3 nM | 28000 nM |
| B3 | 57.3 ± 0.0 °C | 35 ± 11 nM | 35000 nM |
| B4 | 55.3 ± 0.1 °C | ~40 nM and 40 nM | ~76000 nM and 76000 nM |
| B5 | 54.8 ± 0.4 °C | 26 ± 3 nM | – |
